In paper doi:10.1101/2020.01.19.911149 (bioRxiv, 2020):

B1: BsHfq-GFP (natural protein, Bacillus subtilis, UniProt O31796 1-73, looked up)
chain: MKPINIQDQFLNQIRKENTYVTVFLLNGFQLRGQVKGFDNFTVLLESEGKQQLIYKHAISTFAPQKNVQLELE
B2: SmF-GFP (natural protein, S. cerevisiae, UniProt P54999 1-86, looked up)
chain: MSESSDISAMQPVNPKPFLKGLVNHRVGVKLKFNSTEYRGTLVSTDNYFNLQLNEAEEFVAGVSHGTLGEIFIRCNNVLYIRELPN

Molecular target: the molecule itself
Test: SEC-MALS

| Protein | stoichiometry N |
| --- | --- |
| B1 | 6 |
| B2 | 14 |
